Consider two molecules from paper doi:10.1101/2021.01.26.428356, “Sequence signatures of two IGHV3-53/3-66 public clonotypes to SARS-CoV-2 receptor binding domain” (bioRxiv, 2021).

This test addresses T1, Fc-tagged receptor-binding domain (RBD) of the SARS-CoV-2 spike (S) protein (SARS-CoV-2, Wuhan-Hu-1 (GenBank …, UniProt P0DTC2)).
T1 construct: also called SARS-CoV-2 RBD; SARS-CoV-2 S RBD-Fc; not shown: Fc, C-terminal, kept
The test can be described thus: BLI; Octet Red96e; Fc-tagged RBD loaded onto the biosensor (streptavidin biosensors as printed), Fab in solution; 1x PBS pH 7.4, 0.01% w/v BSA, 0.002% v/v Tween 20; 60 s association, 60 s dissociation; 1:1 binding model. To be noted: both partners purified. (In general: Biolayer interferometry detects binding as a change in optical thickness at a sensor tip.)

B1: CC12.3 Fab, Y58 variant (heavy chain F58Y) (Fab, V domains shown)
VH: QVQLVESGGGLIQPGGSLRLSCAASGFTVSSNYMSWVRQAPGKGLEWVSVIYSGGSTYYADSVKGRFTISRDNSKSTLYLQMNSLRVEDTAVYYCARDFGDFYFDYWGQGTLVTVSS
VL: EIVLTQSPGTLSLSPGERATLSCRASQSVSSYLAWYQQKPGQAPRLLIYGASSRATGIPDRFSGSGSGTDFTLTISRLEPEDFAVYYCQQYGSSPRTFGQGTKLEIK
notes: also called CC12.3 Y58
Regarding B1, the binding result was “binds”.

B2: COVA2-20 Fab, F58 variant (heavy chain Y58F) (Fab, V domains shown)
VH: EVQLVESGGGLIQPGGSLRLSCAASGFTVSSNYMSWVRQAPGKGLEWVSVIYSGGSTFYADSVKGRFTISRDNSKNTLYLQMNSLRAEDTAVYYCASPLLLTPPDYYYYMDVWGKGTMVTVSS
VL: DVVMTQSPSSLSVSVGDRVTITCRASQGIRNDLGWYQQKPGKAPKRLIYAASSLQSGVPSRFSGSGSGTEFTLTISSLQPEDFATYYCLQHNSYLWTFGQGTKLEIK
notes: also called COVA2-20 F58
Consider B2, for which the binding result was “binds”.
